Source: a protein production outcome set (Wang et al. 2014)

Assay: label from the status in PepcDB records

Row | Sequence | protein production
1 | MKIIGIIQARTGSKRLKNKVLLKLGDRCILEILLERLKKSKKLDDIIVATTIKKEDNAIVELCNSLGVNVFRGSEKDVLDRFYNASKFYSGDVIVRITGDNPLTSIELIDKQVEYLLKNNFDYVSTKNIILGLSSEVFTFDALEKAWKNAKEKYQREHVTPYIYENPNLFKVFYLEPPEYLKREGIRLTIDTIKDFKLYLELQKHFDLINVDIRQIIDFLDKNPQIKNINSNVRQKSYREVEE | failed
2 | MSLKTYKGYLIDLDGTMYNGTEKIEEACEFVRTLKDRGVPYLFVTNNSSRTPKQVADKLVSFDIPATEEQVFTTSMATAQHIAQQKKDASVYVIGEEGIRQAIEENGLTFGGENADFVVVGIDRSITYEKFAVGCLAIRNGARFISTNGDIAIPTERGLLPGNGSLTSVLTVSTGVQPVFIGKPESIIMEQAMRVLGTDVSETLMVGDNYATDIMAGINAGMDTLLVHTGVTKREHMTDDMEKPTHAIDSLTEWIPYIEGHHHHHH | not failed
3 | MDRTLTHQPQEYAVSVSVGEVKLKGNLVIPNGATGIVLFAHGSGSSRYSPRNRYVAEVLQQAGLATLLIDLLTQEEEEIDLRTRHLRFDIGLLASRLVGATDWLTHNPDTQHLKVGYFGASTGGGAALVAAAERPETVQAVVSRGGRPDLAPSALPHVKAPTLLIVGGYDLPVIAMNEDALEQLQTSKRLVIIPRASHLFEEPGALTAVAQLASEWFMHYLR | not failed
4 | MKSRTRWLTSEELVTLFEAMRQAPGFSVENGLSIKLLLLLAVRKGELIGARWSEFDLDKAVWYLPAERTKTESAIDIPLPPIAVEWLRELQRLAGVSKWVLPARKMQDRMIPHIAESTLSVALAKIKHGLEPFTIHDLRRTARTHFEALGVAPHIAERCLNHKIKGIEGIYNRHDYFEERKAALEAWAGLLLQIERGEADKVVPIRRAVATKQLEHHHHHH | failed
5 | MKLKSYILVGYIISTLLTILVVFWAVQKMLIAKGEIYFLLGMTIVASLVGAGISLFLLLPVFTSLGKLKEHAKRVAAKDFPSNLEVQGPVEFQQLGQTFNEMSHDLQVSFDSLEESEREKGLMIAQLSHDIKTPITSIQATVEGILDGIIKESEQAHYLATIGRQTERLNKLVEELNFLTLNTARNQVETTSKDSIFLDKLLIECMSEFQFLIEQERRDVHLQVIPESARIEGDYAKLSRILVNLVDNAFKYSAPGTKLEVVAKLEKDQLSISVTDEGQGIAPEDLENIFKRLYRVETSRNMKTGGHGLGLAIARELAHQLGGEITVSSQYGLGSTFTLVLNLSGSENKA | failed
6 | GRGTVTNEVRVAVEVPALPAAIASRLEVPAGAGGVYVERLRRLDGLPLSLDTSYLTVDVGRAVLAGDLRDRDVFGLIEEAAGARLGRAEVAVHAVNADPGTARLLGIGPGAAVFALERLTRLADGRPVDAESIRIRADRMA | failed
7 | ELTIPKGAVSEIVTLSETFNQMAALLAEREQAILDSRGNRFARLIDGMSDKSFYCSLDPDGQLAQVSEGVTKVLGIPPELLKRKYQRLFSANPLNEKNWEYTDLALKGQNVPPHQIELVDAKGQARRLDVFMQPLVSDT | failed
8 | MSNTTRQAGSQGSLDAFFKITQRGSNVRQEVLAGLTTFLAMVYSVIVVPSMLGKAGFPPTAVFVATCLVAGLGSLLMGLWANLPMAIGCAISLTAFTAFSLVLGQQISIPVALGAIFLMGVLFTIISVTGIRSWILRNLPLGVAHGTGIGIGLFLLIIAANGVGLVVKNPIDGLPVALGNFTSFPVIMSLLGLAATIGLEKRRVPGGILLVIVVISILGLIFDPNVKYAGFFALPSLTAADGSSLIFSLDIMGALQPLVLPSVLALVMTAVFDATGTIRAVAGQANLLDKDGQIINGGKALTADSVSSIFCSLVGTSPAAVYIESAAGTAAGGKTGLTATVVGVLFLLLLFVSPLAYLVPGYATAPALMYVGLLMLGNVSKLNFDDFVDAMSGLVCAVFIVLTCNIVTGIMLGFGALVLGRICSGEWRKLNIGTVIIAVALVAFYAGGWAL | failed
9 | MDNIPDGDWYCYECVNKATNERKCIVCGGHRPSPVGKMIYCDLCPRAYHADCYIPPLLKVPRGKWYCHGCISRAPPPKKRSAGGTSGSSSKSRRDRDRESGGSAKRRSDNSKTPAMEHMQQQQMPLAGGDSHHHHHQQPPSLNSSHDESM | failed
10 | MKYRFIDHTADIAFEVYGSNLRELFENAALAFYDAFVDTSGIGIEREVGVECEGEDVEITLYRWLNELLYLFDTEFFAAKDVEVEVEEGDGVKASGKLRGGRFSAEMVKVEPKAITLHKFRVEKTDKGYVAFVVVDI | failed
11 | TLLLCFIVAGLTGLGDNFTTISWFTFLDFRVQGDYLYFSPLAQSLDEGQWWRLVSPMLLHFGVLHLAMNSLWYWELGKRIELRQGPWALLGLTLLFSLVSNLAQHYTSGPSLFGGLSGVLYGLLGHIWLYQWLAPDRYFNLPKGVLVMMLIWLVVCLTGVVGTLGLGQIANAAHVGGLLIGCLTGLLGGALARRKLSA | failed
12 | MTPHPRLSIGLPVYNGEEYLAESLDALLGQTYENFELVISDNASTDGTRDICRRYAAQDSRIRYIRLPRNIGAAPNHNYVFTECRGELFKWASHDDLYARDLLRSCVAALDERPEVVLAHAGQAVIDGDGKVKVPYEYGLATDSPRAPERFRSLLFEPGGDDFYGVMRSAMLRRVKPHDSYHHADRTFVAEITLHGPFHQVPELLYFRRDHPTRAERANPSKRSRCVNLDPRRAGPLHPTPRLLAEYVWGFASAIGRAPLSSADRRACHRHLAAWLTSRVRPGVGERVEDRAPVDPDRLTVSVDDLVAGREGRQALEHHHHHH | failed
13 | MAKVLVLNASYEPLNITHWQRAVVLLLKDKAEALENNGKLIYANFPLPSVIRLRQYIKVPYKEIPLTRRNVLERDRHTCQYCNYKGEQLTLDHVIPRSRGGGDSWENLVTACVRCNIKKGNRTPREAQMSLNYTPRRPYSSLLFEIIKHTRNDRNHEWRKYVIGILEHHHHHH | failed
14 | MSVTRRELLKLAGAAGAMSLAPAIVRAQKLEKAKVQIAVGGKPLIYYLPLTIAEVKGFFKDEGLDVSIADFAGGSKALQAVVGGSADVVSGAFEHTLSLQAKGQFYRAFALQGRAPMIGVGVSKKNLPGYKGPADLKGRKIGVTAPGSSTNMVVNFFLAKHGLKASDVSFIGVGAGAGAVTALRSGQIDAISNTDPVVSMLETSGDIQIIVDTRTLKDTKEIFGGNMPAGCLYAPQAFVDANPNTAQALTNAIVRADKWIQKAGADEIAKAVPEGYLLGDPAVYKAAIGKSMEGLSPDGVIPEDGAATALKALAAFVPDFDAAKVDPAKAWTNEYTRRANEKYPNG | not failed
15 | MEPCSSDEFFQALNHAEQTFKKMENYLRHKQLCDVILVAGDRRIPAHRLVLSSVSDYFAAMFTNDVREARQEEIKMEGVEPNSLWSLIQYAYTGRLELKEDNIECLLSTACLLQLSQVVEACCKFLMKQLHPSNCLGIRSFADAQGCTDLHKVAHNYTMEHFMEVIRNQEFVLLPANEIAKLLASDDMNIPNEETILNALLTWVRHDLEQRRKDLSRLLAYIRLPLLAPQAPGLELSSPDLHSKDLAHSAISSTPK | failed
16 | QSLRSFQKQNEDNDKRQQILRSINVNVSSSEAETKYNELIKEAFLVNENGEKVEGDAFATDVVKAATEHQYPVFVANVDGQPKYIMALHGAGLWGPLWGYISVDSDKNTIYGADFSHQGETPGLGAEISKPVFSNEFKGKKIFMSGEFKSVAVVKPGKSVAGQDYVDGISGGTITSKGVDEMLFNSLSGYVKFLTSQN | not failed
17 | MSAIDCIITAAGLSSRMGQWKMMLPWEQGTILDTSIKNALQFCSRIILVTGYRGNELHERYANQSNITIIHNPDYAQGLLTSVKAAVPAVQTEHCFLTHGDMPTLTIDIFRKIWSLRNDGAILPLHNGIPGHPILVSKPCLMQAIQRPNVTNMRQALLMGDHYSVEIENAEIILDIDTPDDFITAKERYTEILEHHHHHH | not failed
18 | MTHPFEPFFDKDSKILILGSFPSIKSRQDGFYYQHPRNRFWPILETLFNAKLENITEQQAFLRKKHIALWDVLQSCKIKNSDDKTISYAKANDLNLILSQTKIQAIFTTGQSAYRFFVKFHPRLEAIALPSTSPANLNFSFEQLLQNYEIIKKFTKLEHHHHHH | failed
19 | MKTVLLTGFDPFGGESINPAWEVAKSLHEKTIGEYKIISKQVPTVFHKSISVLKEYIEELAPEFIICIGQAGGRPDITIERVAINIDDARIADNEGNQPVDVPVVEEGPAAYWSTLPMKAIVKKLQEEGIPASVSQTAGTFVCNHLFYGLMHELEKHDTKMKGGFIHIPFLPEQASNYPGQPSMSLSTIRKGIELAVEVTTTVEVDIVEVGGTTH | not failed
20 | MSNIFLSLEPKILWSHFYRLTQIPRPSGHEEAVRTYVADVAKRCGLEWLVDEAGNIIVRKPASAGMERRRGVILQAHLDMVPQKNAGTAHDFTKDPIDAVIDGEWVHARGTTLGADNGIGVAAALAVLESDDLRHGPLEALFTVNEEAGMTGALGLKPGVLRGDILLNLDSEDEGELFIGCAGGLDGTMRFDYSCEPLPPGYSGIEIRVSGLRGGHSGMDIDLGRGNANKIMNRLLQMGREHHGLLLASIDGGSLRNAIPRESVALVAVPSAQKVAFLDELHSLASAIGLELNGVDPELRVEAADAALPVGMIDDTVAQRLFDAVAACPNGVHRMSEAMAGLVETSNNLARVHSDGRAVSVECLLRSASVEGMRELADAVAGIAERAGTVAAFENGYPGWKPNPASPILKCMVKVYRDRFGKTPEIRAVHAGLECGIIGANNPQLDMISFGPTIRHPHSPDEKVECSSVLKFWELLVATLEEVPEPLEHHHHHH | failed
21 | MATSAKTLQQRMGIIALTWPIFIETLLQSLLGISDIFMLSHYSDNAVAAVGLTTQLMFFMMVMSMMVSTGASILISQNNGAGRTQEATDIGVASVALSLGLAVVMGAAMFFCAHGIIGLFELEPKVAGYGYDYLLICGSLSIGLVMNIAFAAILRSYGFTRSAMLVTLSTGLMNVLGNYIALYSPFGLPVYGVTGVAISTVTSQLMGALIMLAVIRSKHIPLPMQRLNSLPRSTYWSVMRIGLLNAGEMLSYNVAQMTIIYFISQMGTLSLTAYTYGLNISRFIYCFSVALGQAAQIQTGYYVGKQWFDEITVRVQKYCLVGFIVSLAIVLIFFWQRFTIVGWLSENPEVIQLTALLLLGSIALETGRVFNLVIISALKGAGDVAFTVRVGLFSMWGIGVLLAWFFGLYLGYGVLAAWLAVAADEWVRGLIMVQRWRSGRWQRFTRIPPATSA | failed
22 | GSSILDRAVIEHNLLSASKLYNNITFEELGALLEIPAAKAEKIASQMITEGRMNGFIDQIDGIVHFETREA | not failed
23 | MTTFTGHLTDAQAQRLVDGTLLEAEADEVLAHAGDCAECQALTESYRVLGDALGEALGALEVPELPRDFTAGVLSRIDARERAVRRERRFAAAILAAVLVAIGVTVVVAGAGTWAPAASRLAGGLGSAGEVLRLGAGLAGTLLSALRFPLALACTALAVPLLFALSRLIPSARAELA | failed
24 | MRITASLRTFCHLSTPHSDSTTSRLWIDEVTAVARQRDRDSFMRIYDHFAPRLLRYLTGLNVPEGQAEELVQEVLLKLWHKAESFDPSKASLGTWLFRIARNLYIDSVRKDRGWVQVQNSLEQLERLEAPVDRTLDYSQRQEQQLNSAIQNLPTDQAKVLRMSYFEALSHREISERLDMPLGTVKSCLRLAFQKLRSRIEES | failed
25 | MPSLLETKGPKITLGLDLRGGLNMLLGVQTDEALKNKYLSLASALEYNAKKQNILLKDIKSNLEGISFELLDEDEAKKLDALLLELQGHSQFEIKKEAGFYSVNLTPLEQEELRKNTILQVIGIIRNRLDQFGLAEPVVIQQGKEEISVQLPGIKTLEEERRAKDLISRSAHLQMMAVDEEHNKDAMKMTDLEAQKLGSVLLSDVEMGGKILLKAIPILDGEMLTDAKVVYDQNNQPVVSFTLDAQGAKIFGDFSGANVGKRMAIVLDNKVYSAPVIRERIGGGSGQISGNFSVAQASDLAIALRSGAMSAPIQVLEKRIIGPSLGKDSVKTSIIALVGGFILVMGFMVLYYSMAGVIACLALVVNLFLIVAVMAIFGATLTLPGMAGIVLTVGIAVDANIIINERIREVLRENEGIAKAIHLGYINASRAIFDSNITSLIASVLLYAYGTGAIKGFALTTGIGILASIITAIVGTQGIYQALLPKLTQTKSLYFWFGVNKRA | failed
